Data on four molecules can be found in US20100240040A1 (INSTITUT PASTEUR, published 2010).

Where no end group is shown, it is not given here. Bodipy = not defined here

The target of one data set is T1, spCC2-LZ (murine).
T1 construct: also called MOD; minimal oligomerization domain of NEMO
T1 chain: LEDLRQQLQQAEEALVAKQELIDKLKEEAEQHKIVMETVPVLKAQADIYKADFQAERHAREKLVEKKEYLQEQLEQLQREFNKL
In words: fluorescence anisotropy, 10 µM labelled peptide titrated with spCC2-LZ. The source says: The concentration of spCC2-LZ was determining by amino acid analysis (Vinolo et al; 2006).

Data set [1] concerns the molecule itself. The data set is described as follows: circular dichroism and gel filtration (data not shown).
Data set [2] addresses NEMO (endogenous, in 70Z/3-C3 cells) (UniProt O88522 1-412, limits assumed). The data set is described as follows: cell-based or functional assay.

Sequence of NEMO (endogenous, in 70Z/3-C3 cells) (O88522 whole entry): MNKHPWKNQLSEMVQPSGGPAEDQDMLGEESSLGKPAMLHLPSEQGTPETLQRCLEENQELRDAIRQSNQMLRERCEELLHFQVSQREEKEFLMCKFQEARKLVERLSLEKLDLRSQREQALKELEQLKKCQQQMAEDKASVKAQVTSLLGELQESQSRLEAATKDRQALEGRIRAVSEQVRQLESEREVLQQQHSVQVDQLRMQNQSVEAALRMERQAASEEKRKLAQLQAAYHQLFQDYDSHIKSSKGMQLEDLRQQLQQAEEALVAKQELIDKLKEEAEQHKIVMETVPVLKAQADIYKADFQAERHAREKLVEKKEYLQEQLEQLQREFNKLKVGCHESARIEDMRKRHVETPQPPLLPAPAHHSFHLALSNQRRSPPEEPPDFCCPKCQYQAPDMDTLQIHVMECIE

B1: BR7-DR NLM (peptide)
peptide: C(Bodipy)RRRRRRRLKAQADIYKARFQAERHAREK
modifications: reading uncertain
notes: also called DR NLM fused to the poly R7 peptide
Take B1: the Kd in the data set with spCC2-LZ came out at 21 µM.

B2: NLM (peptide)
peptide: LKAQADIYKADFQAERHAREK
notes: also called tag-free NLM; NLM peptide of NEMO
Consider B2, for which, in data set [1], the binding result was “no binding (tested: up to 100 µM)”.

B3: DR NLM (peptide)
peptide: LKAQADIYKARFQAERHAREK
notes: also called tag-free DR NLM; NLM-DR
Turning to B3, in data set [1], the binding result is listed as “no binding (tested: up to 100 µM)”.

B4: BA-DR NLM (peptide)
peptide: C(Bodipy)RQIKIWFQNRRMKWKKLKAQADIYKARFQAERHAREK
modifications: reading uncertain
notes: also called BA-NLM-DR; DR NLM fused to its N-terminus with the antennapedia peptide
As to B4, the Kd with spCC2-LZ worked out at 17 µM. The “IC50 of NF-κB activity (β-galactosidase reporter in 70Z/3-C3 cells after PMA, IL-1 or LPS)” value in data set [2] was determined as 0.9 µM.
